Assay: yeast display, Sf9 membrane polyspecificity reagent, FACS + sequencing; frameworks hold sequencing errors
Summary of the method: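 Galactose-induced (36–48 hours) yeast carrying a synthetic nanobody display library were exposed to 10% biotinylated, detergent-solubilized Sf9 membrane reagent at 4 °C for 1 hour. FACS followed streptavidin microbead enrichment, using low and high (top ~1%) gates for expression (anti-HA) and reagent binding (streptavidin). Colony PCR, MiSeq 2 × 250 sequencing and CDR-length filtering followed. Labels for polyreactivity reflect the gate of origin.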

Row | Sequence | polyreactivity (PSR sort gate)
1 | QLQHVESGGGLVQAGGSLRLSCAASGRTFWYYAMGWYRQAPGTESELVAAISRGGGSTYYADSVKGSFTISRDTAKNTVYLQMNILKPEDTAVYYCAVASDYRGYYYWGQGTQVTVSS | high polyreactivity
2 | QVQLVESGGGLVQAGGSLRLSCAASGSISGYNAMGWYRPAPGKERELVAVITTDGSTNYADSVKGRFTISRDNAKNTVYLQMNSLKPEDTAVYYCNTDDGWRLLWEYDYWGQGTQVTVSS | low polyreactivity
3 | QVQLVESGGGLVQAGGSLRLSCAASGFTFAFNAMGWYRQAPGKERELVAAISGTVSRTRYADSVKGRFTISRDNAKNTVYLQMNSLKPEDTAVYYCAARGYYRYSYPYQPYRMDYWGQGTQVTVSS | high polyreactivity
4 | QVQLVESGGGLVQAGGSLLLSCAASGRILWRYAMGWYRQARGKERELVAGITYSGGRTYYADSVKVRFTISRDNAKNTVYLQMNSLKPEDTAVYYCNADYADSPYFYLLLDYWGQGTQVTVSS | low polyreactivity
5 | QVQLVESGGGLVQAGGSLRLSCAASGFTFVGNTMGWYRQAPGKERELVAAIRGRDGRTYYADSVKGRFTISRDNEKNTVYLQMNSLKPEDTAVYYCNVDVKYSVRSEFDYWGQGTQVTVSS | low polyreactivity
6 | QVQLVESGGGLVQAGGSLRLSCAASGSIFSIYAMGWYRQAPGKERELVAAISWSGGSTYYADSVKGRFTISRDTAKITVYLQMNSLKPEDTAVYYCAAEYEYMWSQYLTEYGYDYWGQGTQVTVSS | low polyreactivity
7 | QVQLVESGGGLVQAGGSLRLSCAASGLTFYLYAMGWYRQAPGKERELVAAITSAGITYADSVKGRFTISRDNAKNTVYLQMNSLKPEDTAVYYCASSIDCGKCLGRRYDYWGQGSQVTVSS | low polyreactivity
8 | QFQLVESGGGLVQAGGSLRLSCAASGRIFHSNAMGWYRQAPGKERELVAAITWSTGRTYYADSVKGRFTISRDNAKNTVYLQMNSLKPEDTAVYYCFRFSYYTGDYWGQGTQVTVSS | high polyreactivity
9 | QVQLVESGGGLVQAGGSLRLSCAASGRTLYRNAMGWYRQAPGKERELVAAISRSGGITYYADSVKGRFTISRDNAKNTVYLQMNSLKPEDTAVYYCAARYGRGVAPYGYWGQGTQVTVSS | high polyreactivity
10 | QVQLVESGGGLVQAGGSLRLSCAASGRTFQYYAMGWYRQAPGKERVLVAAITSSGGSTYYADSVKGRFTISRHNAKNTVYLQMNSLKPEDTAVYYCAAEDGLQGNYNYGYDYWGQGTQVTVSS | low polyreactivity
11 | QVQLVESGGGIVQAGGSLRLSCAASGSTFYRYVMGWYRQAPGKERELVAAISWSGGSTYYADSVKGRFTISRDNAKNTVYLQMNSLKPEDTAVYYCAAVHKVGWSRHYDYWGQGTQVTVSS | high polyreactivity
12 | QVQLVESGGGLVQAGGSLRLSCAASGIILRGYVIGWYRQAPGQERELVAAISTSGGRTYYADSVKGRFTISRDNAKNTVYLQMNSLKQEDTAVYYCAAVSSRLWLYDYWGQGTQVTVSS | high polyreactivity
13 | QVQLVESGGGLVQAGGSLRLSCAASGFIFWPYVMGWYRQEPGTDRELVAAISLGDGSTYYADSVKGRFRLSRDHAKNTVYLQMNSLKPEDTAVYYCAADVTVAWYPVYPGFYYWGQGTQVTVSS | low polyreactivity
14 | QVQLVESGGGLVQAGGSLRLSCAASGRIFKYNAMGWYRQAPGKERELVAVITSGGSTNYADSVKGRFTISRDNAKNTVYLQMNSLKPEDTAVYYCNARRYSTYDYWGQGTQVTVSS | high polyreactivity
15 | QVQLVESGGGLVQAGGSLRLSCAASGSTFIAYTMGWYRQAPGKERELVAAISGTGGTTYADSVKGRFTISRDNAKNTVYLQMNSLKPEDTAVYYCAAQYRYTYWGQGTQVTVSS | low polyreactivity
16 | QVQLVESGVGLVQAGGSLRLSCAASGITFYGYAMGWYRQAPGKDRELVAAINWGGTGTYYADSVKGRFTISRDNAKNTVYFQMNSLKPEDTAVYYCNKAGDPIADPTAGKRQFDYWGQGTQVTVSS | low polyreactivity
17 | QVQLVESGGGLVHAGGSLRLSCAASGSTFIRNAMGWYRQAPGKERELVAAISSSGGRTYYADSVKGRFTISRDNAKNTVYLQMNSLKPEDTAVYYCAARYVPPWGRRYYYWGQGTQVTVSS | high polyreactivity
18 | QVQLVESGGGLVQAGGSLRLSCAASGGIVGYYAMGWYRQAPGKERELVAAISWSGGSTYYADSVKGRFTISRDNAKNTVYLQMNSLKPEDTAVYYCAASDSYGYDYWGQGTQVTVSS | high polyreactivity
19 | QVQLVESGGGLVQAGGSLRLSCAASGRTFNVNVMGWSRQAPGKERELVAAIRYTGGSTYADSVKGRFTISRDNAKNTVYLQMNSLKPEDTAVYYCNADTFFPFDHGMDYWGQGTQVTVSS | low polyreactivity
20 | QVQLVESGGGLVQAGGSLRLSCAASGFIFAEYAMGWYRQAPGKERELVVAIDVGGGSTYYADSVKGRFTISRDNAKNTVYLQMNSLKPEDTAVYYCAATQYGYWVPYQGFDYWGQGTQVTVSS | low polyreactivity
21 | QFQLVESGGGLVQARGSLRLSCAASGRIFSWYAMGWYRQAPGKETELVAGLNRNGGSTYYPDSVKGRFTISRDNAKNTVYLQMNSQKPEDTAVYYCAKGQYYYTGDYDYWGQGTQVTVSS | high polyreactivity
22 | QVQLVESGGGLVQAGGSLRLSCAASGFTFKNNAMGWYRQAPGKEREFVASISSGSTNYADSVKGRFTISRDNAKYTVYLQMNSLKPEDTEVYYCIRAPYRYSEPDYRSDFWGQGTQVTVSS | low polyreactivity

Row | Sequence | polyreactivity (PSR sort gate)
23 | QVQLVESGGGLVQAGGSLRLSCAASGSIFPLYAMGWYRQAPGKERELVADITVSGGSTYYADSVKGRFTISRDNAKNTVYLQMNSLKPEDTAVYYCNADDRSPFPDYWWYPYDYDYWGQGTQVTVSS | low polyreactivity
24 | QVQLVESGGGIVQAGGSLRLSCAASGSTFDVYAMGWYRQAPGKERELVAVINTSGTRTYYADSVKGRFTISRDNAKNTVYLQMNSLKPEDTAVYYCAVSYLSTLGRSRYDYWGQGTQVTVSS | low polyreactivity
25 | QVQLVESGGGLVQAGGSLCLSCAGSGIFVYKAMGRYRQAPGKEREFVAAINKSGASTFYADSVKGRFTISRDNAKKTVYLQMNSLKPEDTAVYYCAKVPHVYRHYYYWGQGTQVTVSS | low polyreactivity
26 | QAQLVESGGGLVQEGGSLRLSCAASGSIFYGYAMGWSRQAPGKERELVATIRFITGSTYYADSVKGRFTISRDNAKNTVYLQMNSLKPEDTAVYYCAAVYVGYYDNYDYWGQGTQVTVSS | low polyreactivity
27 | QVQLVESGGGLVQAGGSLRLSCAASGSTFIWNAMGSYRQAPGKERELVAAISSGGSTYYADSVKGRFTISRDNAKNTVYLQMNSLKPEDTAVYYCAAEYVYNVWEQRYAVYSTDDYWGQGTQVTVSS | low polyreactivity
28 | QVQLVESGGGLVQAGGSLRLSCAASGNTLYQYAMGWYRQAPGKERELVASITWSGSSTYYADSVKGRFTISRDNAKNTDDLQMNSLKPEDPAVYYCAAVVYYTFDYCGQGTQVTVSS | low polyreactivity
29 | QVQLVESGGGLVQAGGSLRLSCAASGSTFVIYDMGWYRQAPGKERELVAAISYSGGSTYYADSVKGRFTISRDNAKNTVYLQMNSLKPEDTAVYYCNAGVLVLLYAYLPSELEYWGQGTQVTVSS | low polyreactivity
30 | QVQLVESGGGIVQAGGSLRLSCAASGSIFKHYAMGWYRQAPGKERELVATIDYLGGRTYYADSVKGRFTISRDNAKNTVYLQMNSLKPEDTAVYYCAASRYSGKIRGEDYWGQRTQVTVSS | low polyreactivity
31 | QVQLVESGGGLVQAGGSLRLSCAASGITINYYAMGWYRQAPGKERELVATIRSGGGTYYADSVKGRFTISRDNAKNTVYLQMNSLKTEDTAVYYCASYTYPYYRYDYWGQGTQVTVSS | high polyreactivity
32 | QVQLVESGGGLVQAGGSLRLSCAASGRTFSYYGMGWYRQAPGKERELVAAITNSVGRTYYADSVKGRFTISRDNEKNTVYLHMNSLKPEDTAVYYCKKYGRYYYWGQGTQVTVSS | low polyreactivity
33 | QVQLVESGGGLVQAGGSLRLSCAASGSIFPVNAMGWYRQAPGKEREFVAAINVIGGSTYYADSVKGRFTISRDNAKNTVYLQMNSLKPEVTAVYYCAVEGYSILFGMDYLGQGTQVTVSS | low polyreactivity
34 | QVQLVESGGGLVQAGGSLRLSCAASGGTFNAYAMGWYRQAPGKERELVATISYSGGSTYYADSVKGRFTISRDNAKNTVYLQMNSLKPEDTAVYYCAKVRYYPYSPGGLDYWGQGTQVTVSS | low polyreactivity
35 | QVQLVESGGGLVQAGGSLSLSCAASGSIFYYNAMGWYRQAPGKERELVAAITSSAITNYADSVKGRFTISRDNAKNTVYLQMKSRKPEDTAVYYCAGRITTRPRSTRKRVWVDYWGQGTQVTVSS | high polyreactivity
36 | QVQLVESGGGLVQAGGSLRLSCAASGFTFLINAMGWYRQAPGKERELVAAIRSGGSTNYADSVKGRFTISRDNAKNTVYFQMNSLKPEDTAVYYCAARRYYPYKYRYGYWGQGTQVTVSS | high polyreactivity
37 | EEELVESGGGLVQAGGSLSLICAASGLTFYIYAMGWYRPAPGKERELVAAITTSGDSTYYADSVKGRFTISRDNAKNTVYLLLNSLKPEDTAVYYGAAAVWHYGRPGYLDSGYDYWGQGTQVSVSS | low polyreactivity
38 | QVQLVESGGCLVQAGGSLRLICAASGSIFDINAMGWYSQAPGKERELVADIRRGDSTNYADSVKGRFTISRDNAKNTVYLQMNSLKPEDTAVYYCAARWRRSIYGFYPQRPYDYWGQGTQVTVSS | high polyreactivity
39 | QVQLVESGGGLVQAGGSLRISCAASGFTFKRYAMGWYRQAPGKERELVAAITWRGGSTYYADSVKGRFTISRDNAKNTVYLQMNSLKPEDTAVYYCAAYSYPYWQKRPYDYWGQGTQVTVSS | high polyreactivity
40 | QVQLVESGGGLVQAGGSLRLSCAASGRTFKVYAMGWYRQAPWKERDLVAAISFSGGSTYYADSVKGRFTISRDNAKNTDYLQMNSLKPEDTAVYYCAAKRYGEYRARGYYYWGQVTQVTVSS | high polyreactivity
41 | QVQLVESGGGLVQAGGSLRLSCAASGITFNSYAMGWYRQAPGKERELVAAISGSGSSTYYADSVKGRFTISRDNAKNTVYLQMNSLKPEDTAVYYCAATVYSSWTYYTHEYWGQGTQVTVSS | low polyreactivity
42 | QVQLVESGGGLVQAVGSLRLSCAPSGRTLNNYTMGWNRPAPGKERELVAAIRWSTGSTYYADSVKGRFTISRDNSKNTVYLQMNSLKPEDTAVYYCNAYRYQWAQSTEYDYWGQGTQVTVSS | high polyreactivity
43 | QVQLVESGGGLVQAGGSLRLSCAASGGTFSRNVMGWYRQAPGTERELVAAISFSGGTTYYADSVKGRFTISRDNAKNTVYLQMISLKPEDTAVYYCAARPVNTVRPFDYWGQGTQVTVSS | high polyreactivity

— the nanobody polyreactivity screen of Harvey et al. (2022)
